{"source": "paper PMC7317968", "about": "“A GM1b/asialo‐GM1 oligosaccharide‐binding R‐type lectin from purplish bifurcate mussels Mytilisepta virgata and its effect on MAP kinases” (The Febs Journal, 2019)", "target": "the molecule itself", "assay": "AUC; sedimentation velocity, sample about 1.0 mg/mL, 50 mM potassium phosphate pH 7.4, 0.1 M NaCl, 293 K, c(s) analysis in SEDFIT converted to c(M); native mass 30 kDa", "data": [{"protein": "Mytilisepta virgata R-type lectin SeviL (natural protein, UniProt A0A646QV53 1-129, looked up, SeviL (variant SeviL-1), R-type (ricin B-type) lectin of Mytilisepta virgata, 129 amino acids, 15 kDa; Native protein isolated from tissue; also called SeviL-1; mytvir1; source: purified from Mytilisepta virgata mantles and gills (lactosyl-agarose column, eluted with 50 mM lactose)) MSSVTIGKCYIQNRENGGRAFYNLGRKDLGIFTGKMYDDQIWSFQKSDTPGYYTIGRESKFLQYNGEQVIMSDIEQDTTLWSLEEVPEDKGFYRLLNKVHKAYLDYNGGDLVANKHQTESEKWILFKAY", "values": [{"measurement": "stoichiometry N", "value": 2}]}]}
